Test results from publication PMC6795519.

Biological target: PIP3-dependent Rac exchanger 1 (P-Rex1), residues 38 to 1659 (human) (UniProt Q8TCU6)
Sequence of UniProt Q8TCU6 (Q8TCU6 38-1659): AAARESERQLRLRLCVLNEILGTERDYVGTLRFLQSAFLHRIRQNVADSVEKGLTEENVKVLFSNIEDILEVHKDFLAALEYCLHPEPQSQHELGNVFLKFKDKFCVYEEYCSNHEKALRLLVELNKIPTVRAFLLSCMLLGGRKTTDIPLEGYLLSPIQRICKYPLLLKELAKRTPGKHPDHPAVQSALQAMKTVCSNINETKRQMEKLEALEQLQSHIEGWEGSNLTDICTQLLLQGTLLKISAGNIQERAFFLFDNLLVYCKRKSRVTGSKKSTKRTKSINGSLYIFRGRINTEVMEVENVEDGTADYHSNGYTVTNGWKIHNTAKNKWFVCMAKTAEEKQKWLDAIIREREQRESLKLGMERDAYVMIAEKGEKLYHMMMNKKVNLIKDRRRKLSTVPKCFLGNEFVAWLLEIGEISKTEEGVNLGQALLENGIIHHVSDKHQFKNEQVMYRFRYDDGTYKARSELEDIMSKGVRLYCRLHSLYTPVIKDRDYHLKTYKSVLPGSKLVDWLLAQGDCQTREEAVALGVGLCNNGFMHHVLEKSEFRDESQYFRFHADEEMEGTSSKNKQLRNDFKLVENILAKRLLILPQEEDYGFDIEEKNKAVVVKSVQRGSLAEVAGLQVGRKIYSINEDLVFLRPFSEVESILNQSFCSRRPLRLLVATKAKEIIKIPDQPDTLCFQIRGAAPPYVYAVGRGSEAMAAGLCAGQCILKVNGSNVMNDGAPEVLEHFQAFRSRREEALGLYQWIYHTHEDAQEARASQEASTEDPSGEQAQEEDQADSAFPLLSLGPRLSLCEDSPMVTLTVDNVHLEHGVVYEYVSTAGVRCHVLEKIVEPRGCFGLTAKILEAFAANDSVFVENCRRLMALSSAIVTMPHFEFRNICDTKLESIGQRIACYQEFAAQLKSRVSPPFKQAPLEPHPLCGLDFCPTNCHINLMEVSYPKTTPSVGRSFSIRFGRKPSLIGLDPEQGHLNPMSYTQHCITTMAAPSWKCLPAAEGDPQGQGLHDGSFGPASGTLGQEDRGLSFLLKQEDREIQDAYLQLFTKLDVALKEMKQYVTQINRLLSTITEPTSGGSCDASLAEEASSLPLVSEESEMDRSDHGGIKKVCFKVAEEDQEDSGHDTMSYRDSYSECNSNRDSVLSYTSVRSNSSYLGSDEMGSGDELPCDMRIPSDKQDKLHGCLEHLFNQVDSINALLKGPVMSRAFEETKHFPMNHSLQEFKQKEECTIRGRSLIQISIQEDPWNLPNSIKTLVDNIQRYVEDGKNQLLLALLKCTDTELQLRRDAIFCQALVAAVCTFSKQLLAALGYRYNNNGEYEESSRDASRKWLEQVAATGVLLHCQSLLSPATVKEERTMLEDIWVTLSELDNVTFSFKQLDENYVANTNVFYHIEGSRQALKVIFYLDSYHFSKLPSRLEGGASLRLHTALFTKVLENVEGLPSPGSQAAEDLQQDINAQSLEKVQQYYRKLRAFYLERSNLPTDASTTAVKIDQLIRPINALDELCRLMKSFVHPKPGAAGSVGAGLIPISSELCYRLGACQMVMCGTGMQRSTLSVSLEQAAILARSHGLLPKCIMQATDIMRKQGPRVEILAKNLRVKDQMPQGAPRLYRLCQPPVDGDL

Geranylgeranylated human Gβ1γ2 with Gβ W332A (from UniProt P62873 1-340; P59768 1-71) (complex)
liposome-based GEF assay, Gβγ dose-response (0.5 μM PIP3): EC50 of activation of P-Rex1 against WT Gβγ; lower efficacy than WT: 10 fold
